Target: T1, recombinant human IL-1α (human, UniProt P01583 113-271)
T1 sequence (looked up): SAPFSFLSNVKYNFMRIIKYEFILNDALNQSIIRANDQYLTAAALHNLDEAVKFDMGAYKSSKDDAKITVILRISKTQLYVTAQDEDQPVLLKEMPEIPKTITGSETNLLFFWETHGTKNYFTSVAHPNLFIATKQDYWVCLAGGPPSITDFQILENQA
Test: cell-based or functional assay

- HUVEC-based potency assay; ICAM-1 expression by flow cytometry after hIL-1α stimulation; IC50: 0.0187 µg/mL
B1: human monoclonal antibody designated XIA12 (antibody, V domains shown)
VH: QVQLVQSGAEVKKPGSSVKVSCKASGGRFTNYAILWVRQAPGQGLQWLGGIIPIFDETDHAQDFQDRLTITVDESMTTAYMELSSLRPEDTAIYYCATGSNSYYGLYWGQGTLVTVSS
VL: DIVMTQSPDFLAVSLGERATINCKSSQSVLYSSDNKNYLAWYQQKAGQPPKLLIYWASTRESGVPDRFSGSGSATDFTLTISSLQAEDVAVYYCQQYYSLPITFGQGTRLEIKR

Source: patent US20260132192A1 (XBIOTECH, published 2026)
